In publication PMC4199230:

Target: 6X-His-PTPROt-CS/DA
Test: pull-down

| Substance | percent reduction of binding against WT VCP [%] |
| --- | --- |
| HA-tagged VCP Y796F (from UniProt P55072 1-806) (natural protein) | 50 |
| HA-tagged VCP Y796F/Y805F (from UniProt P55072 1-806) (natural protein) | > 90 |
| HA-tagged VCP Y805F (from UniProt P55072 1-806) (natural protein) | > 90 |
